{"source": "patent US7759315B2", "about": "“Treatment of inflammatory conditions of the intestine” (CSL Behring AG, priority 2005, dated 2010)", "origin": "cited, not measured here", "note": "Non-standard residues stand in square brackets, D forms with d. No end group written: not given here. Orn = NCCC[C@H](N)C(=O)O; Aib = CC(C)(N)C(=O)O"}
{"biological_target": "T1, LCAT (Homo sapiens, UniProt P04180)", "T1 sequence (P04180 25-440)": "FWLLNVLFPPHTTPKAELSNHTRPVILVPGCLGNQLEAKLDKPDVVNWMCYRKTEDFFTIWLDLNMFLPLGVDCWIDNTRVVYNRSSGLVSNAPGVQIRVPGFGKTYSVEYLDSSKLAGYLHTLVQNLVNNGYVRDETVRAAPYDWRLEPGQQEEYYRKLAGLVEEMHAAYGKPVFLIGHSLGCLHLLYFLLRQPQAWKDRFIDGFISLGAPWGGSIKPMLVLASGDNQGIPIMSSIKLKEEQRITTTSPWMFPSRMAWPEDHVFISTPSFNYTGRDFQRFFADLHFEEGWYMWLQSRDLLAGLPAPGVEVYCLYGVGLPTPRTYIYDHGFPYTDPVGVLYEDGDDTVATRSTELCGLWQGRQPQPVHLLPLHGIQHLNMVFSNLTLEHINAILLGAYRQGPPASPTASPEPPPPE", "units": {"ACTIVITY (%) LCAT": "%"}}
{"substance": "PVLDLFRELLEEGKQKLK* (not fully specified (N-terminus, C-terminus); printed as PVLDLFRELLEEGKQKLK*) [Peptide 229]", "ACTIVITY (%) LCAT": 0}
{"substance": "pVLDLFRELLNELLEALKQKLK [Peptide 21]", "ACTIVITY (%) LCAT": 57}
{"substance": "AVLDLFRELLNELLEALKQKLK [Peptide 29]", "ACTIVITY (%) LCAT": 39}
{"substance": "PVLDLFRELGEELKQKLK* (not fully specified (N-terminus, C-terminus); printed as PVLDLFRELGEELKQKLK*) [Peptide 227]", "ACTIVITY (%) LCAT": 0}
{"substance": "PVLELFENLGERLLDALQKKLK [Peptide 151]", "ACTIVITY (%) LCAT": 55}
{"substance": "PVLDEFREKLNEXLWALKQKLK (PVLDEFREKLNE[Aib]LWALKQKLK; not fully specified (C-terminus)) [Peptide 89]", "ACTIVITY (%) LCAT": 6}
{"substance": "PVLELFKELLEELKQKLK* (not fully specified (N-terminus, C-terminus); printed as PVLELFKELLEELKQKLK*) [Peptide 195]", "ACTIVITY (%) LCAT": 87}
{"substance": "PVLELFERLLDELLNALQKKLK [Peptide 86]", "ACTIVITY (%) LCAT": 7}
{"substance": "PVLDEFREKLWEXWEALKQKLK (PVLDEFREKLWE[Aib]WEALKQKLK; not fully specified (C-terminus)) [Peptide 111]", "ACTIVITY (%) LCAT": 0}
{"substance": "PVLDLFKELLQELLEALKQKLK [Peptide 11]", "ACTIVITY (%) LCAT": 72}
{"substance": "PVLELFENLLEKLLEALQKKLK [Peptide 182]", "ACTIVITY (%) LCAT": 7}
{"substance": "PALELFKDLLEELRQKLR* (not fully specified (N-terminus, C-terminus); printed as PALELFKDLLEELRQKLR*) [Peptide 202]", "ACTIVITY (%) LCAT": 70}
{"substance": "PVLDLFRELLNELLQKLK* (not fully specified (N-terminus, C-terminus); printed as PVLDLFRELLNELLQKLK*) [Peptide 218]", "ACTIVITY (%) LCAT": 29}
{"substance": "DWFKAFYDKFFEKFKEFF [Peptide 247]", "ACTIVITY (%) LCAT": 3}
{"substance": "PVLELFLNLLERLGDALQKKLK [Peptide 172]", "ACTIVITY (%) LCAT": 16}
{"substance": "PVLDAFRELLEALLQLKK [Peptide 222]", "ACTIVITY (%) LCAT": 8}
{"substance": "GVLELFLNLLERLLDALQKKLK [Peptide 177]", "ACTIVITY (%) LCAT": 10}
{"substance": "PVLDLFRELLNELWQKLK [Peptide 219]", "ACTIVITY (%) LCAT": 24}
{"substance": "PVLDLFOELLEELOQOLK* (PVLDLF[Orn]ELLEEL[Orn]Q[Orn]LK; not fully specified (N-terminus, C-terminus); printed as PVLDLFOELLEELOQOLK*) [Peptide 212]", "ACTIVITY (%) LCAT": 43}
{"substance": "PVLELFENLLERWLDALQKKLK [Peptide 181]", "ACTIVITY (%) LCAT": 8}
{"substance": "PVLDEFREKLWEXLEALKQKLK (PVLDEFREKLWE[Aib]LEALKQKLK; not fully specified (C-terminus)) [Peptide 43]", "ACTIVITY (%) LCAT": 25}
{"substance": "PVLDLFKELLEELKQKLK* (not fully specified (N-terminus, C-terminus); printed as PVLDLFKELLEELKQKLK*) [Peptide 192]", "ACTIVITY (%) LCAT": 100}
{"substance": "DVLDLFRELLEELKQKLK* (not fully specified (N-terminus, C-terminus); printed as DVLDLFRELLEELKQKLK*) [Peptide 221]", "ACTIVITY (%) LCAT": 12}
{"substance": "PVLDEFRELYNEXLEALKQKLK (PVLDEFRELYNE[Aib]LEALKQKLK; not fully specified (C-terminus)) [Peptide 92]", "ACTIVITY (%) LCAT": 5}
{"substance": "PVLDLFRELLEELKNKLK* (not fully specified (N-terminus, C-terminus); printed as PVLDLFRELLEELKNKLK*) [Peptide 196]", "ACTIVITY (%) LCAT": 81}
{"substance": "GVLDLFRELLEELKQKLK* (not fully specified (N-terminus, C-terminus); printed as GVLDLFRELLEELKQKLK*) [Peptide 198]", "ACTIVITY (%) LCAT": 80}
{"substance": "pVLDLFRELLNEGLEALKQKLK ([dP]VLDLFRELLNEGLEALKQKLK; not fully specified (C-terminus); printed as pVLDLFRELLNEGLEALKQKLK) [Peptide 19]", "ACTIVITY (%) LCAT": 58}
{"substance": "PVLDLFRELLEELOQOLO* (PVLDLFRELLEEL[Orn]Q[Orn]L[Orn]; not fully specified (N-terminus, C-terminus); printed as PVLDLFRELLEELOQOLO*) [Peptide 211]", "ACTIVITY (%) LCAT": 45}
{"substance": "PVLDLFRELLNELLEALKQKKK [Peptide 56]", "ACTIVITY (%) LCAT": 18}
{"substance": "DWFKAFYDKVFEKFKEFF [Peptide 241]", "ACTIVITY (%) LCAT": 8}
{"substance": "PALELFKDLLEELRQRLK* (not fully specified (N-terminus, C-terminus); printed as PALELFKDLLEELRQRLK*) [Peptide 208]", "ACTIVITY (%) LCAT": 48}
{"substance": "pVLDLFRELLEELKQKLK* ([dP]VLDLFRELLEELKQKLK; not fully specified (N-terminus, C-terminus); printed as pVLDLFRELLEELKQKLK*; also: * mark of unstated meaning) [Peptide 214]", "ACTIVITY (%) LCAT": 39}
{"substance": "PALELFKDLLEEFRQRLK* (not fully specified (N-terminus, C-terminus); printed as PALELFKDLLEEFRQRLK*) [Peptide 213]", "ACTIVITY (%) LCAT": 42}
{"substance": "PVLDEFRELLKEXLEALKQKLK (PVLDEFRELLKE[Aib]LEALKQKLK; not fully specified (C-terminus)) [Peptide 68]", "ACTIVITY (%) LCAT": 14}
{"substance": "GIKKFLGSIWKFIKAFVG [Peptide 242, 18L peptide (Degreat et al., 1990), reference compound]", "ACTIVITY (%) LCAT": 7}
{"substance": "PVLDEFREKLNEXMEALKQKLK (PVLDEFREKLNE[Aib]MEALKQKLK; not fully specified (C-terminus)) [Peptide 114]", "ACTIVITY (%) LCAT": 0}
{"substance": "PVLDLLRELLNELLEALKQKLK [Peptide 16]", "ACTIVITY (%) LCAT": 59}
{"substance": "PVLDEFREKLNEXLEALEQKLK (PVLDEFREKLNE[Aib]LEALEQKLK) [Peptide 118]", "ACTIVITY (%) LCAT": 0}
{"substance": "PVLELFKELLQELLEALKQKLK [Peptide 17]", "ACTIVITY (%) LCAT": 59}
{"substance": "PVLDLFREGLNELLEALKQKLK [Peptide 20]", "ACTIVITY (%) LCAT": 57}
{"substance": "~VLDLFRELLNEGLEALKQKLK [Peptide 47]", "ACTIVITY (%) LCAT": 23}
{"substance": "PVLELFENLLERLLDALQOOLO (PVLELFENLLERLLDALQ[Orn][Orn]L[Orn]; not fully specified (C-terminus)) [Peptide 185]", "ACTIVITY (%) LCAT": 3}
{"substance": "PVLDEFREKLNEXLKALKQKLK (PVLDEFREKLNE[Aib]LKALKQKLK; not fully specified (C-terminus)) [Peptide 93]", "ACTIVITY (%) LCAT": 5}
{"substance": "PVLDFFREKLNEXLEALKQKLK (PVLDFFREKLNE[Aib]LEALKQKLK; not fully specified (C-terminus)) [Peptide 63]", "ACTIVITY (%) LCAT": 16}
